# Experimental data from PMC7943553 (2021).
# Positions count from the first letter of the chain named.
# B1: PvRBP2b human mAb 241242 (antibody, V domains shown)
# VH: EVQLLESGGGLVQPGGSLRLSCAVSGFTFRNYALSWVRQAPGKGLDWVSTISASGGATYYADSVKGHFTISRDNSKNILYLDMKSLRAEDTAIYYCARDGGSYTPYFFLDSWGQGALVTVSS
# VL: SYELTQPASVSVAPGQTAQITCGGNSIGRKSIHWYQHKPGQAPVLVISYDSDRPSGIPERFSGSNSGNTATLTISKVEAGDEADFYCQVRDSDNDHVVFGGGTKLTVL
# B2: PvRBP2b human mAb 283284 (antibody, V domains shown)
# VH: QVQLQQWGAGLLKPSETLALTCTVYGGSSSGYYWNWIRQSPGKGLEWIGEISDSGSTIYNPSLESRVTMSVDTSKNQFSLKLTSVTAADTAVYYCAKAILTRYNWLDPWSQGTLVTVSS
# VL: DIVMTQSPSSLSASVGDRISISCRASQGVNSALAWYQQKPGKAPKLLIYDASTLESGVPSRFSGSGSGTDFALTINSLQPEDFATYYCQQFNSYPLTFGGGTKVEIK
# B3: PvRBP2b human mAb 253245 (antibody, V domains shown)
# VH: EVQLVQSGAEVKKPGSSMKVSCKASGGTFNRYVFSWVRQAPGQGLEWMGGILPILETTYYAKNFKGRVTITADESTSTVYMELSSLTSEDTAVYFCARDEHDYVWGSYRPSLTGPWGQGTLVTVSS
# VL: QSALTQPPSTSGSPGQSVTISCTGTGIDVGGFSYVSWFQYHPGKAPKLIIFEVTKRPSGVPDRFSGSKSGNTASLTISGLQADDEAEYYCSSYAVNNNFVFGTGTKVTVL
# B4: PvRBP2b human mAb 273264 (antibody, V domains shown)
# VH: EVQLLESGGGLVRPGGSQRLSCAASGFTFTPYAMTWVRQAPGKGLEWLSTISGSGGSTSYADSVKGRFTISRDNSKNILYLQMDSLRAEDTALYYCTKDKDEYTFGHNAFDVWGRGTMVTVSS
# VL: SYELTQAPSVSVAPGQTARITCGGDNIGRTSVHWYQQKPGQAPVLVIFYDNDRPSGIPERFSGSNSGNMATLSISRVEVGDEADYYCQVWDSNNDHPVFGGGTKLTVV
# B5: PvRBP2b human mAb 258259 (antibody, V domains shown)
# VH: B4 VH with S59Y, I78M, D84N, R87T, R115Q
# VL: B4 VL with T30K, S31T, H33N, F48Y
# B6: PvRBP2b human mAb 243244 (antibody, V domains shown)
# VH: QVQLVESGGGVVQSGKSLRVSCAASGFTFSSYGMHWVRQAPGKGLEWVAFISYDGDNKYSADSVKGRLTISRDNSKNTLYLQMNSLRPEDTAVYYCAKESNYGENAFDIWGQGTMVTVSS
# VL: QSALTQPRSVSGSPGQSVTISCTGTSSDVGFYNFVSWYQHHPGKAPKLIIYDVSERPSGVPDRFSGSKSGNTASLSISGLQPEDEADYYCCSYAGTYTFVFGSGTKVTVL
# B7: PvRBP2b human mAb 237235 (antibody, V domains shown)
# VH: QVQLVESGGGVVQPGRSLRLSCAASGFMFNSYGMHWVRQAPGKGLEWMAFISYDGSDDYYGDSVKGRITISRDNSKNTLFLHINSLRTEDTAVYYCAKESNYGENAFDVWGHGTMVTVSS
# VL: B6 VL with S27N, I49M, S54T, S76T, P82A, D87E, S103H
# B8: PvRBP2b human mAb 251249 (antibody, V domains shown)
# VH: EVQLVESGGGLVKPGGSLRLSCEASGFLFSSYSMNWVRQAPGKGLEWVSSITGYSSEVFYTDSVKGRFTVSRDNSKNSLYLQMDSLRAEDTAVYYCARALTIFGVVITDYWFFDLWGRGTLVTVSS
# VL: EIVLTQSPATLSLSPGDRATLSCRASQSVTTFLAWYQQKPGQAPRLLIYDVSNRATGIPARFSGSGSGTDFTLTISSLEPEDFAVYYCQQRSNWGLTFGGGTKVEIK
# Molecular target: T1, P. vivax Reticulocyte Binding Protein 2b, residues 161–1454 (P. vivax strain Salvador I, UniProt A5K736 161-1454, DyLight 488 (NHS ester) in the FRET assay; biotin (BirA site) in the competition ELISA between human mAbs)
# T1 chain: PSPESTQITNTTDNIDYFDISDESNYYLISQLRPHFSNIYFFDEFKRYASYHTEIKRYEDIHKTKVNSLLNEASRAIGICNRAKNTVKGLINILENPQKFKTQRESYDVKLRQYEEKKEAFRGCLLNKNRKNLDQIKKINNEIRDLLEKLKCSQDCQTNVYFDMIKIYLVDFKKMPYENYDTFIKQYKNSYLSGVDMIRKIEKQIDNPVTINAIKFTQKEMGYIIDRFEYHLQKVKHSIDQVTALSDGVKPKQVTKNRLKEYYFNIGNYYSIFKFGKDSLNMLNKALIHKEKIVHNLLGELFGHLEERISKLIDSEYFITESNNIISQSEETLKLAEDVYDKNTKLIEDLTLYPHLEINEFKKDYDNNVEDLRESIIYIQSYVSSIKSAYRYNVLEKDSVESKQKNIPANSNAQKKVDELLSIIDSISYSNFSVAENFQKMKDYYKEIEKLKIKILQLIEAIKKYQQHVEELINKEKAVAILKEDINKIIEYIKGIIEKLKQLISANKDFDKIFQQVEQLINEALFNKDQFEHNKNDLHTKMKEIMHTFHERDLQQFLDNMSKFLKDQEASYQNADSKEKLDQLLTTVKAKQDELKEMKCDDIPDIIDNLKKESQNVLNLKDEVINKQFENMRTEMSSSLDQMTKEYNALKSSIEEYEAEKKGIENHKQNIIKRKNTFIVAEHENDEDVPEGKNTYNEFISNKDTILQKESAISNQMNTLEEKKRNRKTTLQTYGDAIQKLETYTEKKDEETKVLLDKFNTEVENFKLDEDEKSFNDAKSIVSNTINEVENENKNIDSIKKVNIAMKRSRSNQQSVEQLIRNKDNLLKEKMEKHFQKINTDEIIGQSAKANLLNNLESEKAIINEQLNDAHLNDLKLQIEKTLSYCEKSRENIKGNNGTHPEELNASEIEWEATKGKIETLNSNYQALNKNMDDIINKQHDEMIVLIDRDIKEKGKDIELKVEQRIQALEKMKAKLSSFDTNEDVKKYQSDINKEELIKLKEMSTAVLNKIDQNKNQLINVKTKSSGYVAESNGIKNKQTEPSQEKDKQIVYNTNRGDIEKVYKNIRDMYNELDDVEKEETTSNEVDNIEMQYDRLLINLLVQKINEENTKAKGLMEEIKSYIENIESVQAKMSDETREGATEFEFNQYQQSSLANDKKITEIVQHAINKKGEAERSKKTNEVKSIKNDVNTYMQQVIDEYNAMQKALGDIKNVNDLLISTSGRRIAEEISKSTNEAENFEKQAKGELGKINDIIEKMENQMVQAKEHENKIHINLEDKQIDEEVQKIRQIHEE
# Assay: BLI
row,Binder,koff [s⁻¹]
1,B1,2.13e-05
2,B2,6e-05
3,B3,8.17e-06
4,B4,3.02e-05
5,B5,7.57e-06
6,B6,1.15e-05
7,B7,3.45e-05
8,B8,< 1e-06

# Molecular target: T1, P. vivax Reticulocyte Binding Protein …
# Assay: BLI; representative sensorgram
row,Binder,Kd [nM]
1,B1,< 0.01
2,B2,0.1
3,B3,< 0.01
4,B4,< 0.01
5,B5,< 0.01
6,B6,< 0.01
7,B7,0.1
8,B8,< 0.01

# Molecular target: T1, P. vivax Reticulocyte Binding Protein …
# Assay: BLI
# Remark: another data set of the same source
row,Binder,Kd [nM]
1,B1,0.061
2,B2,0.246
3,B3,0.0307
4,B4,0.083
5,B5,0.0269
6,B6,0.0366
7,B7,0.0883
8,B8,< 0.01
